According to publication PMC8795592, “Human Dermcidin Protects Mice Against Hepatic Ischemia-Reperfusion–Induced Local and Remote Inflammatory Injury” (Frontiers in Immunology, 2021):

Tests used:
[1] = biological target: T1, recombinant EGFR corresponding to the extracellular domain (residue 25-645) (human, UniProt P00533 25-645); assay: SPR; Nicoya Lifesciences OpenSPR (gold nanoparticles); DCD or DCD-C34S with 6×His tag immobilised on NTA sensor chip; EGFR extracellular domain applied as analyte at three concentrations; KD by Trace Drawer Kinetic Data Analysis v.1.6.1; details: both partners purified
T1 construct: epidermal growth factor receptor (EGFR), human, extracellular domain, residues 25-645; also called extracellular domain of human EGFR; epidermal growth factor receptor; source: bought: RayBiotech

[2] = biological target: T1, recombinant EGFR corresponding to the …; assay: SPR; Biacore T200; DCD immobilised on CM5 chip; EGFR extracellular domain applied as analyte at 5 concentrations; KD by Biacore evaluation software 2.0 supposing a 1:1 binding ratio; details: both partners purified
[3] = biological target: the molecule itself; assay: SDS-PAGE with and without DTT; purified recombinant His-tagged protein run on SDS-PAGE in the presence or absence of the reducing agent dithiothreitol; shows disulfide-linked (covalent) dimers only

| Binder | Kd [1] [nM] | Kd [2] [nM] | stoichiometry N [3] |
| --- | --- | --- | --- |
| recombinant human dermcidin (full-length DCD precursor, residue 20-110) with N-terminal 6×His tag (natural protein, UniProt P81605 20-110, looked up, dermcidin (DCD), human, residues 20-110, without the N-terminal 19-aa signal leader peptide (residue 1-19); one sentence of the methods says residue 20-100; Without a reducing agent the preparation is a mixture of monomers and disulfide-linked dimers (through Cys34); results and legends print 20-110; also called recombinant DCD; source: E. coli BL21 (DE3) pLysS, purified; Triton X-114 extraction …) YDPEAASAPGSGNPCHEASAAQKENAGEDPGLARQAPKPRKQRSSLLEKGLDGAKKAVGGLGKLGKDAVEDLESVGKGAVHDVKDVLDSVL | 58.1 | 58.8 | 2 |
| DCD-C34S analog (recombinant human dermcidin residue 20-110 with a Cys to Ser substitution at residue 34, N-terminal 6×His tag) (natural protein, UniProt P81605 20-110, looked up, dermcidin (DCD), human, residues 20-110 without the signal leader peptide, with C34S; Made by similar procedures as m1; source: E. coli BL21 (DE3) pLysS, purified to homogeneity; Triton X-114 extraction to remove endotoxins; not shown: His6, N-terminal, kept) YDPEAASAPGSGNPSHEASAAQKENAGEDPGLARQAPKPRKQRSSLLEKGLDGAKKAVGGLGKLGKDAVEDLESVGKGAVHDVKDVLDSVL | 57.9 | – | – |
